The chains are these.
B1: CPEB3 Ribozyme (parent)
chain: UAACAGGGGGCCACAGCAGAAGCGUUCACGUCGCAGCCCCUGUCAGAUUCUGGUGAAUCUGCGAAUUCUGCUGUAUAUCUC

Variants of B1 are the subject of this series. The series can be described thus: self-cleavage, relative activity (ratio to wild type); higher = more cleavage; in vitro, sequencing. The method, boiled down: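 Libraries of CPEB3 self-cleaving ribozyme mutants came from rounds of error-prone PCR and carried barcodes, which DNA sequencing matched to variants. In vitro transcription used T7 RNA polymerase at 37°C for 5 hours, with a further 15 min in DNase I before EDTA stopped the reaction; the ribozymes cleaved during both steps. The RNA was reverse transcribed with template switching and sequenced on Illumina. Relative activity is the cleaved/total read fraction of a variant divided by that of the unmutated ribozyme, averaged over three batches with at least 5 reads.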
With C23U U74A, the self-cleavage turned out to be 0.58.
Regarding C23U U74C, the self-cleavage amounted to 0.76.
With G24A A57G, the self-cleavage was 0.15.
For the variant G24A A57C, the self-cleavage amounted to 0.15.
In the case of C23U A47G, the self-cleavage amounted to 0.18.
Regarding C23U A47U, the self-cleavage stood at 0.2.
The same measure for C23U U25C: 0.19.
On to C23U U25A, for which the self-cleavage worked out at 0.14.
For the variant G24A G55A, the self-cleavage was 0.1.
As to C23U U67C, the self-cleavage was 0.28.
With C23U U67G, the self-cleavage turned out to be 0.38.
As to C23U U67A, the self-cleavage is 0.16.
G24A C39U: the self-cleavage came out at 0.17.
On to G22U A45G, for which the self-cleavage amounted to 0.22.
As to G24A G52A, the self-cleavage was 0.21.
For G24A G52U the value was 0.37; for G22U C71U, 0.08.
As to G24A U41A, the self-cleavage was 0.21.
Consider G24A U41G, for which the self-cleavage was 0.12.
In the case of G24A U41C, the self-cleavage worked out at 0.3.
On to G22U A28G, for which the self-cleavage worked out at 0.17.
As to G22U A28U, the self-cleavage was determined as 0.17.
Turning to G22C A56U, the self-cleavage stood at 0.14.
As for G22C A56G, the self-cleavage came to 0.21.
For C23G A64G the value was 0.08; for C23G A64U, 0.26.
As for G22U A35U, the self-cleavage was found to be 0.09.
For C23A U51C, the self-cleavage turned out to be 0.27.
The same measure for C23A U51A: 0.37; for C23A U80A: 0.23.
Regarding C23A U80G, the self-cleavage was 0.51.
For C23A U80C, the self-cleavage came out at 0.12.
Turning to C23U U66C, the self-cleavage was 0.15.
For C23U C39A, the self-cleavage turned out to be 0.19.
Take C23U C39U: the self-cleavage came to 0.24.
As to C23U U69C, the self-cleavage was found to be 0.19.
The same measure for C23U U69A: 0.1.
As for G22C U69C, the self-cleavage amounted to 0.15.
With C23A U41A, the self-cleavage came to 0.35.
C23A U41C: the self-cleavage is 0.34.
For G24A U51G, the self-cleavage stood at 0.11.
G24A U51C: the self-cleavage is 0.31.
For G24A U51A, the self-cleavage was found to be 0.15.
With C23A C44U, the self-cleavage was determined as 0.08.
For G22C G42U, the self-cleavage stood at 0.11.
For C23G A65U the value was 0.22; for C23U A28G, 0.26.
For C23U A28U the value was 0.23.
Regarding C23U A28C, the self-cleavage was 0.43.
The same measure for C23A A35U: 0.31; for C23A A35G: 0.27; for C23G A77G: 0.67.
In the case of C23G A77C, the self-cleavage turned out to be 0.27.
Consider C23G A77U, for which the self-cleavage came to 0.36.
On to G22U U26C, for which the self-cleavage was 0.11.
Consider G22U U26A, for which the self-cleavage was 0.26.
G24A G46A: the self-cleavage came out at 0.2.
As to G24A A28U, the self-cleavage came out at 0.14.
Consider G24A A28G, for which the self-cleavage came to 0.25.
For the variant C23A A28G, the self-cleavage came to 0.18.
With C23A A28U, the self-cleavage was found to be 0.14.
On to G22U C59U, for which the self-cleavage stood at 0.16.
In the case of G22U U31C, the self-cleavage was 0.11.
Take G22U U31A: the self-cleavage came out at 0.32.
Turning to G24A G73C, the self-cleavage amounted to 0.4.
Consider G24A G73A, for which the self-cleavage amounted to 0.14.
Regarding C23A U26A, the self-cleavage came to 0.49.
For C23G U25C, the self-cleavage came to 0.28.
For C23U G52A the value was 0.57; for C23A C81G, 0.22; for C23A U67C, 0.17.
As to C23A U67A, the self-cleavage was determined as 0.16.
For G22C U78A, the self-cleavage was determined as 0.06.
For C23U C44A, the self-cleavage was determined as 0.38.
For G22U U25C the value was 0.2.
The same measure for C23A A65G: 0.28; for G24A C29G: 0.21.
The same measure for G24A A56U: 0.37; for G24A A56G: 0.13.
Take C23G A57G: the self-cleavage was 0.16.
For the variant C23A C40G, the self-cleavage worked out at 0.23.
Turning to G22A U72C, the self-cleavage was found to be 0.23.
In the case of G22C A57G, the self-cleavage stood at 0.32.
The same measure for C23G U80A: 0.47; for C23G U80C: 0.13.
Take C23G C62A: the self-cleavage amounted to 0.29.
The same measure for C23A G63A: 0.09.
For the variant G22C U31A, the self-cleavage turned out to be 0.12.
The same measure for C23G U58C: 0.21.
For the variant C23A C38U, the self-cleavage worked out at 0.49.
Turning to G22C U72C, the self-cleavage is 0.2.
For C23U U54G the value was 0.31.
For C23U U54A, the self-cleavage amounted to 0.31.
Consider C23U U54C, for which the self-cleavage is 0.16.
In the case of G22U U67C, the self-cleavage is 0.06.
Turning to C23G U72A, the self-cleavage was 0.04.
The same measure for C23G U72C: 0.13; for G22C U74G: 0.19.
C23A C34U: the self-cleavage worked out at 0.22.
Take G24A A64G: the self-cleavage is 0.36.
On to G24A A64U, for which the self-cleavage came to 0.28.
As to G22C U67C, the self-cleavage turned out to be 0.11.
On to G22C U67A, for which the self-cleavage was 0.16.
As for C23U A65G, the self-cleavage was 0.43.
C23G C39U: the self-cleavage was 0.08.
G24A A65G: the self-cleavage was determined as 0.28.
As for G22C G53C, the self-cleavage worked out at 0.07.
G24A U58A: the self-cleavage is 0.34.
Regarding G24A U58C, the self-cleavage came to 0.12.
On to C23A A45C, for which the self-cleavage stood at 0.34.
On to C23A A45G, for which the self-cleavage amounted to 0.23.
The same measure for C23U C62G: 0.09; for C23G U41A: 0.1; for C23G U41C: 0.21.
G24A U26C: the self-cleavage stood at 0.3.
In the case of G24A U26A, the self-cleavage turned out to be 0.16.
For the variant C23G A28G, the self-cleavage came to 0.17.
On to C23G A28U, for which the self-cleavage is 0.23.
For C23A U74A the value was 0.23; for C23A G73A, 0.23; for C23G U69C, 0.08.
For C23G U69A the value was 0.12; for G22U U43A, 0.34.
G22U U43C: the self-cleavage was determined as 0.3.
As for C23U U58A, the self-cleavage was 0.34.
The same measure for G22U G61C: 0.14; for G22A U78C: 0.19.
In the case of G22C A75U, the self-cleavage stood at 0.24.
Regarding G22C A75G, the self-cleavage was found to be 0.13.
Take C23U A77U: the self-cleavage was found to be 0.23.
Regarding C23U A77G, the self-cleavage came to 0.34.
Consider C23G U78A, for which the self-cleavage is 0.32.
In the case of C23G U78C, the self-cleavage came to 0.28.
On to C23U G70A, for which the self-cleavage turned out to be 0.17.
As to C23A G36U, the self-cleavage came to 0.25.
For the variant G24A C44U, the self-cleavage was 0.18.
On to C23G U60A, for which the self-cleavage is 0.19.
Turning to C23G U60C, the self-cleavage amounted to 0.07.
The same measure for C23G U51A: 0.16.
Regarding C23G U51G, the self-cleavage stood at 0.5.
As to G24A U31A, the self-cleavage was found to be 0.2.
For G24A U31C, the self-cleavage was determined as 0.15.
The same measure for C23G U66C: 0.15.
With C23U U31A, the self-cleavage was determined as 0.23.
In the case of C23U U31C, the self-cleavage turned out to be 0.22.
As for C23G U43C, the self-cleavage was determined as 0.25.
The same measure for G22C C62U: 0.16; for C23U U43C: 0.3.
On to C23U U43A, for which the self-cleavage worked out at 0.34.
For C23U U43G the value was 0.11; for G24A C62U, 0.18; for C23A U78C, 0.12.
Take C23A U78A: the self-cleavage is 0.21.
Turning to C23A U78G, the self-cleavage came out at 0.08.
G24A U60C: the self-cleavage amounted to 0.24.
The same measure for G24A U60A: 0.28.
As for G24A U60G, the self-cleavage is 0.13.
For G22U U80C the value was 0.24.
The same measure for C23G C29U: 0.36; for C23G C29G: 0.08.
The same measure for G22A U74C: 0.5; for G22A U80C: 0.5; for G24A G42A: 0.12.
As for C23G G63U, the self-cleavage is 0.32.
For the variant C23A U31C, the self-cleavage turned out to be 0.23.
Take G24A U49C: the self-cleavage worked out at 0.21.
For the variant G24A U49A, the self-cleavage came out at 0.39.

The values are drawn from the RNAGym collection of RNA variant scans (doi:10.1093/nar/gkz1192).
